Laboratory results from patent US20220096608.

Chain of Mono-PEGylated Micro-plasmin variant (20 kDa PEG) P86C Catalytic Domain (SEQ ID NO. 8) (chain, as listed by the source P86C): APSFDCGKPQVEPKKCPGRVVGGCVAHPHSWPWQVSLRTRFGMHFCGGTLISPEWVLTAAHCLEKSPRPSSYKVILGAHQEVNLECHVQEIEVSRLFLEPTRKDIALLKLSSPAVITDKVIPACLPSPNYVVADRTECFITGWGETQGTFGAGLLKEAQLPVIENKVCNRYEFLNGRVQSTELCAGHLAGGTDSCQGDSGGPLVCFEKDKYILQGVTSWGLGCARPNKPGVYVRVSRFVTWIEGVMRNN
Chain of Mono-PEGylated Micro-plasmin variant (20 kDa PEG) E85C Catalytic Domain (SEQ ID NO. 7) (chain, as listed by the source E85C): as the sequence (chain, as listed by the source P86C) above, with E85C, C86P counted along it
Chain of Mono-PEGylated Micro-plasmin variant (20 kDa PEG) V88C Catalytic Domain (SEQ ID NO. 10) (chain, as listed by the source V88C): as the sequence (chain, as listed by the source P86C) above, with C86P, V88C counted along it
Chain of Mono-PEGylated Micro-plasmin variant (40 kDa PEG) P86C Catalytic Domain (SEQ ID NO. 8) (chain, as listed by the source P86C): as the sequence (chain, as listed by the source P86C) above
Chain of Bi-PEGylated Micro-plasmin variant (20 kDa-20 kDa PEG) E85C-H87C Catalytic Domain (SEQ ID NO. 11) (chain, as listed by the source E85C H87C): as the sequence (chain, as listed by the source P86C) above, with E85C, C86P, H87C counted along it
Chain of Mono-PEGylated Micro-plasmin variant (40 kDa PEG) E85C Catalytic Domain (SEQ ID NO. 7) (chain, as listed by the source E85C): as the sequence (chain, as listed by the source P86C) above, with E85C, C86P counted along it
Chain of Mono-PEGylated Micro-plasmin variant (40 kDa PEG) V88C Catalytic Domain (SEQ ID NO. 10) (chain, as listed by the source V88C): as the sequence (chain, as listed by the source P86C) above, with C86P, V88C counted along it

Each substance was assayed against α2-antiplasmin (UniProt P08697).
Chain of α2-antiplasmin (P08697 40-491): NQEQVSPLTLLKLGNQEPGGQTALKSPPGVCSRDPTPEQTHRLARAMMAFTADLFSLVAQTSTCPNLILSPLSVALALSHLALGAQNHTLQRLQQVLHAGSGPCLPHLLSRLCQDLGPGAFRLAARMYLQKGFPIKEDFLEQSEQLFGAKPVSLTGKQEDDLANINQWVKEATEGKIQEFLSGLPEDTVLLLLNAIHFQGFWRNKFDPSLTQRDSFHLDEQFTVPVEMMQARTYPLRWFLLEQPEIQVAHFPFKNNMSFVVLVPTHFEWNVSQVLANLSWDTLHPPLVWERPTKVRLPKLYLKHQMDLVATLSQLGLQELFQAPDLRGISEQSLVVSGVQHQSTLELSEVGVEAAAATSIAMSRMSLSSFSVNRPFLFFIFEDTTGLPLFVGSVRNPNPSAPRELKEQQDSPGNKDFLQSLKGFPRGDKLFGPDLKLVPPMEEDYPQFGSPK
For “Mono-PEGylated Micro-plasmin variant (20 kDa PEG) E85C Catalytic Domain (SEQ ID NO. 7)”, the “In vitro Half-life (of inactivation by α2-antiplasmin)” value (“In vitro Half-life” below) was 6 to 7 min.
In the case of “Mono-PEGylated Micro-plasmin variant (40 kDa PEG) V88C Catalytic Domain (SEQ ID NO. 10)”, the “In vitro Half-life” value is reported as >7 min.
With “Mono-PEGylated Micro-plasmin variant (40 kDa PEG) P86C Catalytic Domain (SEQ ID NO. 8)” the “In vitro Half-life” value was >7 min.
In the case of “Mono-PEGylated Micro-plasmin variant (40 kDa PEG) E85C Catalytic Domain (SEQ ID NO. 7)”, the “In vitro Half-life” value is reported as >7 min.
“Mono-PEGylated Micro-plasmin variant (20 kDa PEG) V88C Catalytic Domain (SEQ ID NO. 10)” was tested, and the “In vitro Half-life” value was 6 to 7 min.
In the case of “Bi-PEGylated Micro-plasmin variant (20 kDa-20 kDa PEG) E85C-H87C Catalytic Domain (SEQ ID NO. 11)”, the “In vitro Half-life” value is reported as >10 min.
In the case of “Mono-PEGylated Micro-plasmin variant (20 kDa PEG) P86C Catalytic Domain (SEQ ID NO. 8)”, the “In vitro Half-life” value is reported as 6 to 7 min.
